Consider nine molecules from publication PMC5483248, “The LacI family protein GlyR3 co-regulates the celC operon and manB in Clostridium thermocellum” (Biotechnology for Biofuels, 2017).

Where “and” joins values, the source holds several entries; their conditions need not be identical. Equal values may be shown once.

For data set [1], the target named is T1, GlyR3 (Acetivibrio thermocellus, UniProt A3DJ78).
T1 construct: gene Cthe_2808; full gene cloned in pTXB1, expressed in E. coli T7 Express C2566, purified with the IMPACT (intein) system
T1 sequence (A3DJ78 1-345): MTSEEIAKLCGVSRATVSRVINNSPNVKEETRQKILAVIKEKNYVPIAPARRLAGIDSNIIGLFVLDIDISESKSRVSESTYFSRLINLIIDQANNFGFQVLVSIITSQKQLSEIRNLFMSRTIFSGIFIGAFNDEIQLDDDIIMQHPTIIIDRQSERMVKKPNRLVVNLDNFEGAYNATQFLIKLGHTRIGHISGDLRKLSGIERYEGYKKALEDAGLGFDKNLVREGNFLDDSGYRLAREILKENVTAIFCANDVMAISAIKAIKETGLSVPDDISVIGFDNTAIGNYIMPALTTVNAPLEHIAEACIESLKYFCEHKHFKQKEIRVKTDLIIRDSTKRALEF
Briefly: EMSA, release of GlyR3 from biotin-labelled celC operator DNA (ImageJ). It is filed as binding. The conditions noted are these: GlyR3 150 ng (387 nM); celC DNA 0.2 ng (0.156 nM); laminaribiose 70 μg (100 mM); effector, dissociates repressor from celC site. (In EMSA bound probe runs differently from free probe, usually more slowly.)

The target in data set [2] is T2, GlyR3 (Clostridium thermocellum) (UniProt Q9AL35).
T2 sequence: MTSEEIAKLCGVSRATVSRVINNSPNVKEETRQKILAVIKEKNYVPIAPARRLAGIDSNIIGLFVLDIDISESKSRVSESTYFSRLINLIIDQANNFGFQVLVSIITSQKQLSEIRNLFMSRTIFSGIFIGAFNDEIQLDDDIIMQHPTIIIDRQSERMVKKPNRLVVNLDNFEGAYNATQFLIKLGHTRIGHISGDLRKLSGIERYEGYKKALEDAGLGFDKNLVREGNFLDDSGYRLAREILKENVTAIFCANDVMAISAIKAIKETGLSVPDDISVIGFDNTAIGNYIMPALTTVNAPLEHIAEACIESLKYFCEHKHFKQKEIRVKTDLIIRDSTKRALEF
Briefly: EMSA. The settings on record: LightShift Chemiluminescent EMSA kit, TBE gel; 0.2 ng biotin-DNA (0.156-0.204 nM), GlyR3 150 ng (387 nM) unless titrated; binding buffer salt, pH and ….

Data set [3] deals with T3, GlyR3 (Clostridium thermocellum, UniProt Q9AL35 1-345).
T3 sequence: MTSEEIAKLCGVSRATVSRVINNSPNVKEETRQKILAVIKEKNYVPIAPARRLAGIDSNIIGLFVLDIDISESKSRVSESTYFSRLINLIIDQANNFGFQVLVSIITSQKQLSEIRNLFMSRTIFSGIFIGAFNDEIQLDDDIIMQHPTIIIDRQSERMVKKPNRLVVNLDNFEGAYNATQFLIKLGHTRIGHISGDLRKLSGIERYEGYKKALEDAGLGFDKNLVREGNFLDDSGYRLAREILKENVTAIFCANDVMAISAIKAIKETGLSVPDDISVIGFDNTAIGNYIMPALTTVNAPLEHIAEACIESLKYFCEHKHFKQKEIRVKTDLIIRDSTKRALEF
Put plainly: EMSA. The conditions noted are these: LightShift Chemiluminescent EMSA kit, TBE gel, 0.2 ng biotin-DNA (0.156-0.204 nM), GlyR3 150 ng (387 nM) unless titrated, binding buffer salt, pH and ….

Data set [4] addresses T3, GlyR3. Put plainly: competition; 500 ng 18-mer reverses shift of celC probe; LightShift Chemiluminescent EMSA kit, TBE gel; 0.2 ng biotin-DNA (0.156-0.204 nM), GlyR3 150 ng (387 nM) unless titrated; binding buffer salt, pH and temperature not given. The settings on record: protein: recombinant; tags: expressed from pTXB1 (IMPACT intein system, NEB); chain copies: 2; label: unlabeled; blunt.

Data set [5] has as its target T3, GlyR3. Put plainly: competition; 500 ng 18-mer reverses shift of manB probe; LightShift Chemiluminescent EMSA kit, TBE gel; 0.2 ng biotin-DNA (0.156-0.204 nM), GlyR3 150 ng (387 nM) unless titrated; binding buffer salt, pH and temperature not given. The conditions noted are these: protein: recombinant; tags: expressed from pTXB1 (IMPACT intein system, NEB); chain copies: 2; label: unlabeled; blunt.

Where [6] appears, read: 387 nM GlyR3, 50 mM laminaribiose.
Where [7] appears, read: 387 nM GlyR3, 100 mM laminaribiose.

As for `OC[C@H]1O[C@@H](O[C@H]2[C@H](O)[C@@H](CO)OC(O)[C@@H]2O)[C@H](O)[C@@H](O)[C@@H]1O` (stereo partly drawn) [laminaribiose], the “% celC DNA shifted at 100 mM laminaribiose” value at GlyR3 [1] turned out to be 67%.

In the case of “CCGAATAAAAACTGGACAGAGAAGAAGAAAACGTGATATAATTAAATTAGAATGAACGCGCGTACATTATTGAATAATCCAGTGTTAAATGGTTTCAGTTTACGATTTCAAATGTTTATATCCAATTTACATTTAAAAACATACAAAACATCAAAAGTATTTAATACCAATATTTAAAACACAATATTTCAGGAGGA (double strand) [celC EMSA fragment]”, in data set [2], the binding entry is “binds” and the binding signal is 99 % shifted.

On to “TCGGTGAATGTTGAGGTTGACAAGGAAGGACTTTATGAAATATTCATCTGCTATGTGCAGCCTTACGACAAAAACAAAAAAGTGCAGTATCTTAATGTAAACGGTGTCAATCAGGGAGAAATAAGCTTTCCGTTTACTCTTAAATGGAGAGAGATTTCAGCAGGA (double strand) [manB EMSA fragment]”, for which, in data set [2], the binding result is reported as “binds more weakly”; the binding signal is 18 % shifted (2×) and 19 % shifted.

In the case of “TGAGCAAATCAATTGTAATATGAAGAAAAATATAGTAAGATATTAATAAAAGAATAAAATAATATATTGGTATAATATGTAAATCGGTTGCAGTAATGCTATTCCAATAAAAGATGAAAGATTTCCGTTAATTCATTGAAAGAAACGTTCTGCTGCA (double strand) [celT EMSA fragment]”, in data set [2], the binding entry is on record as “no binding”.

With “TGTTATCTTCGGTTAGCTCATCAAGGTAATCATAGAATATATTATAAAGAGTAACAAAGTAAATAAACTCAGGTGTATTTTCTTTATATAGAATTCTCATTTGCTCAAGAACTTTATCTTTAACATCCTGAACAGCAGTATCATCCTCCCA (double strand) [random control DNA fragment]”, the binding result in data set [2] is given as “no binding”.

Turning to celC EMSA fragment, the binding signal was 82 % shifted with GlyR3 [3] (setting [6]); 67 % shifted with GlyR3 [3] (setting [7]); 99 % shifted with GlyR3 [3] (387 nM GlyR3, no laminaribiose).

In the case of manB EMSA fragment, the binding signal in the data set with GlyR3 [3] (setting [6]) is 18 % shifted; with GlyR3 [3] (setting [7]), 19 % shifted; with GlyR3 [3] (387 nM GlyR3, no laminaribiose) it was 18 % shifted.

B1: celC 18-mer competitor (dsDNA)
DNA 1: AATGAACGCGCGTACATT
DNA 2: AATGTACGCGCGTTCATT
As for B1, the binding result in the data set with GlyR3 [4] was “binds”.

B2: manB 18-mer competitor (dsDNA)
DNA 1: AATGTAAACGGTGTCAAT
DNA 2: ATTGACACCGTTTACATT
Take B2: the binding result with GlyR3 [5] is listed as “binds”.
